Measurements reported in IntAct's records for PubMed 31570497.

B1: Envelopment polyprotein (Uukuniemi virus (strain S23)), P09613 (parent)
chain: MVRTYLLLLLLCGPATPFFNHLMDVTRRLLDSSNATWQRDQPDTHRLSRLDAHVMSMLGVGSHIDEVSVNHSQHLHNFRSYNCEEGRRTLTMMDPKSGKFKRLKCNENQTLSKDCASCIEKKSSIMKSEHLVYDDAICQSDYSSPEAMPDHETHLCRIGPLHIQHCTHEAKRVQHVSWFWIDGKLRVYDDFSVSWTEGKFLSLFDCLNETSKDHNCNKAVCLEGRCSGDLQFCTEFTCSYAKADCNCKRNQVSGVAVVHTKHGSFMPECMGQSLWSVRKPLSKRSVTVQQPCMDCESDCKVDHILVIVRHFYPDHYQACLGSTCLTGRAKDKEFKIPFKMADRLSDSHFEIRIWDKERSNEYFLESRCESVDACAAITCWFCRANWANIHCFSKEQVLILVAVSSLCILLLASVLRALKVIATFTWKIIKPFWWILSLLCRTCSKRLNKRAERLKESIHSLEEGLNNVDEGPREQNNPARAVARPNVRQKMFNLTRLSPVVVGMLCLACPVESCSDSISVTASSQRCSTSSDGVNSCFVSTSSLLQVSPKGQESCLILKGPTGTAVDSIRIKTTDIKLECVRRDLYWVPRVTHRCIGTRRCHLMGACKGEACSEFKINDYSPEWGHEEELMAQLGWSYCVEQCGGALCQCFNMRPSCFYLRKTFSHLSQDAFNIYECSEWSYRINVLVSTNSTHSNLTLKLGVPDSIPHGLISLSSVSQPPAIAYSECFGEDLHGTKFHTVCNRRTDYTLGRIGEIQCPTKADALAVSKRCISSDSIIFSKVHKDSVDCQSSIIDPMTIRNRNKLPSTVGSVTFWPTETSVEAAIPDLASATMLIRLDGYTIQFRSDSNKCSPRFLSLSGCYNCEAGAKLELEHVTDFGTALGILECPSLGYTTYYEVKNTLEKSIRTMHLNGSHVEAKCYFRCPNSESQLTIRGELIYLFNDDIRHHNQTLSPGLSPKSGSGWDPFGWFKASWLRAIWAILGGTVSLIIGVVIIYMVFTLCLKVKKS

Variants of: B1
Details: with gbf1_human GBF1, Q92538
gbf1_human GBF1, Q92538, sequence (Q92538 whole entry): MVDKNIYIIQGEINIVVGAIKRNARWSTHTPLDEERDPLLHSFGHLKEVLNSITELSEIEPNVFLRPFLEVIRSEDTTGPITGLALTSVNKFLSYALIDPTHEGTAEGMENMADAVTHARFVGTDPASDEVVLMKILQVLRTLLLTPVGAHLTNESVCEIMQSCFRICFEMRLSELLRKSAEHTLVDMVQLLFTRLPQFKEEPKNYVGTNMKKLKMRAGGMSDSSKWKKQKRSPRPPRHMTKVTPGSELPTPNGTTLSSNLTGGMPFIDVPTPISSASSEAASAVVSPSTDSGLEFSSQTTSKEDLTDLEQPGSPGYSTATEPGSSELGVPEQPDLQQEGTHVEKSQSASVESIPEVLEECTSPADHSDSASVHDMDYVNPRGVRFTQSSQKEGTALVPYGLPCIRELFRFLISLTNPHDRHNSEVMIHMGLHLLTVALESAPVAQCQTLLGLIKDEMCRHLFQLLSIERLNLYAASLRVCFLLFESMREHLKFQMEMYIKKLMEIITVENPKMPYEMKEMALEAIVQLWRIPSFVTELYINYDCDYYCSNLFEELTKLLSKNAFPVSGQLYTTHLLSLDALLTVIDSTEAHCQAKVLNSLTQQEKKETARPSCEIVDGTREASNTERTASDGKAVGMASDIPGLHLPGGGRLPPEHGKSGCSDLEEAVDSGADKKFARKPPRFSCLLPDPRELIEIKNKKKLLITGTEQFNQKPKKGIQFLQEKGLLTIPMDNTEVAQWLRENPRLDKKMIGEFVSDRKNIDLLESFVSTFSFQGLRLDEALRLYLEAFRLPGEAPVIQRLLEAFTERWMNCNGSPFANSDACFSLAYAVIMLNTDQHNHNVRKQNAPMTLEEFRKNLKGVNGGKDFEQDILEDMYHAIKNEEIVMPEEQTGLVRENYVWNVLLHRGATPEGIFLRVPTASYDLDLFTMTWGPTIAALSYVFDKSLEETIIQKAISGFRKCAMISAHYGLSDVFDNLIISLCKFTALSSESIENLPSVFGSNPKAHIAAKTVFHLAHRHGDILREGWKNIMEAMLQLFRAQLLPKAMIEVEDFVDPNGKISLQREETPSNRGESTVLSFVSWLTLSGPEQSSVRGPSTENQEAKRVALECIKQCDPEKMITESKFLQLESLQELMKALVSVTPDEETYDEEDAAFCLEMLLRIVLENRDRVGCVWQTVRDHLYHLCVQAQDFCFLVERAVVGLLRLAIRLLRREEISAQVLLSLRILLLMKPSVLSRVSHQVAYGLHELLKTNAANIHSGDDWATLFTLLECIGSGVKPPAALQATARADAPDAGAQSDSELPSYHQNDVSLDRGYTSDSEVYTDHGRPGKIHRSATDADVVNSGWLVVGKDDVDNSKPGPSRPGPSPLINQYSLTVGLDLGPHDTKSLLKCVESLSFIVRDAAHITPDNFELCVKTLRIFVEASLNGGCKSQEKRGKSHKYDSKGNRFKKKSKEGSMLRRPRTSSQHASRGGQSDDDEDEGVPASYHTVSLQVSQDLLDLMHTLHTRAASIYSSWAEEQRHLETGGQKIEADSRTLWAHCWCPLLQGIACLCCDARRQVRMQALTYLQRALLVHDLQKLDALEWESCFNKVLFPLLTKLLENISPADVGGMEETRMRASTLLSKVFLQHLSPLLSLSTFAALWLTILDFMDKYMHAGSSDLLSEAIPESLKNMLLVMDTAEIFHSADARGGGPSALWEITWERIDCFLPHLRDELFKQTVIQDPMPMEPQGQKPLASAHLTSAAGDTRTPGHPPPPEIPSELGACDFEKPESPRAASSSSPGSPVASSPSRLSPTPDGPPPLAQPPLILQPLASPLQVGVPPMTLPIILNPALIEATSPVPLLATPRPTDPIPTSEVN

| Variant | effect of a mutation on the interaction |
| --- | --- |
| L438A;L439A | with no effect |
| L461A;E462A;E463A;G464A;L465A | with no effect |
